# Assay results published in US20250263481A1.
# Substitutions are numbered along the chain they refer to.
# B1: reference mAb (IMAB362, Ganymed) (antibody, INN chains, looked up, V domains shown)
# VH: QVQLQQPGAELVRPGASVKLSCKASGYTFTSYWINWVKQRPGQGLEWIGNIYPSDSYTNYNQKFKDKATLTVDKSSSTAYMQLSSPTSEDSAVYYCTRSWRGNSFDYWGQGTTLTVSS
# VL: DIVMTQSPSSLTVTAGEKVTMSCKSSQSLLNSGNQKNYLTWYQQKPGQPPKLLIYWASTRESGVPDRFTGSGSGTDFTLTISSVQAEDLAVYYCQNDYSYPFTFGSGTKLEIKR
# B2: YL-G2-B (antibody, human IgG1, kappa)
# heavy: EVQLQQSGPELEKPGASVKISCKASGYSFTGYKMNWVKQSNGKSLEWIGNIDPYYGGTTYNQKFKGKATLTVDKSSSTAYMQLKSLTSEDSAVYYCARYGKGNTMDYWGQGTSVTVSSASTKGPSVFPLAPSSKSTSGGTAALGCLVKDYFPEPVTVSWNSGALTSGVHTFPAVLQSSGLYSLSSVVTVPSSSLGTQTYICNVNHKPSNTKVDKRVEPKSCDKTHTCPPCPAPELVGGPSVFLLPPKPKDTLMISRTPEVTCVVVDVSHEDPEVKFNWYVDGVEVHNAKTKPPEEQYNSTLRVVSVLTVLHQDWLNGKEYKCKVSNKALPAPIEKTISKAKGQPREPQVYTLPPSREEMTKNQVSLTCLVKGFYPSDIAVEWESNGQPENNYKTTPLVLDSDGSFFLYSKLTVDKSRWQQGNVFSCSVMHEALHNHYTQKSLSLSPGK
# light: DIVMTQSPSSLTVTAGEKVTMSCKSSQSLLNSGNQKNYLTWYQQRPGQPPKLLIYWASTRESGVPVRFTGSGSGTDFTLTISSVQAEDLAVYYCQNAYIYPLTFGTGTKLELKRTVAAPSVFIFPPSDEQLKSGTASVVCLLNNFYPREAKVQWKVDNALQSGNSQESVTEQDSKDSTYSLSSTLTLSKADYEKHKVYACEVTHQGLSSPVTKSFNRGEC
# B3: YL-G2-C (antibody, human IgG1, kappa)
# heavy: QIQLVQSGPELRKPGETVKISCKASGFPFTTDGMSWVKQAPGKGLKWMGWINTYSGVPTYADDFKGRVAFSLETSASTAYLQIKNLKNEDTATYFCARFRRGNALDNWGQGTSVTVSSASTKGPSVFPLAPSSKSTSGGTAALGCLVKDYFPEPVTVSWNSGALTSGVHTFPAVLQSSGLYSLSSVVTVPSSSLGTQTYICNVNHKPSNTKVDKRVEPKSCDKTHTCPPCPAPELVGGPSVFLLPPKPKDTLMISRTPEVTCVVVDVSHEDPEVKFNWYVDGVEVHNAKTKPPEEQYNSTLRVVSVLTVLHQDWLNGKEYKCKVSNKALPAPIEKTISKAKGQPREPQVYTLPPSREEMTKNQVSLTCLVKGFYPSDIAVEWESNGQPENNYKTTPLVLDSDGSFFLYSKLTVDKSRWQQGNVFSCSVMHEALHNHYTQKSLSLSPGK
# light: B2 light with R45K, V66D, V91I, A97N, I99F, T106A, K109R
# B4: YL-G2-D (antibody, human IgG1, kappa)
# heavy: QLQQSGPELEKPGASVKISCKASGYSFTGYKMNWVKQSNGESLEWIGNIDPYYGDTTYTQKFKGKATFTVDTSSSTAYMQLKSLTSEDSAVYFCARYNRGNTMDYWGQGTSVTVSSASTKGPSVFPLAPSSKSTSGGTAALGCLVKDYFPEPVTVSWNSGALTSGVHTFPAVLQSSGLYSLSSVVTVPSSSLGTQTYICNVNHKPSNTKVDKRVEPKSCDKTHTCPPCPAPELVGGPSVFLLPPKPKDTLMISRTPEVTCVVVDVSHEDPEVKFNWYVDGVEVHNAKTKPPEEQYNSTLRVVSVLTVLHQDWLNGKEYKCKVSNKALPAPIEKTISKAKGQPREPQVYTLPPSREEMTKNQVSLTCLVKGFYPSDIAVEWESNGQPENNYKTTPLVLDSDGSFFLYSKLTVDKSRWQQGNVFSCSVMHEALHNHYTQKSLSLSPGK
# light: B2 light with M21L, T75A, Y93F, I99F, K113R
# How the values were obtained:
# [1] = target: human CLDN18.2 expressed on cells (human); test: cell-based or functional assay
# [2] = target: human CLDN18.2 expressed on cells (human); test: flow cytometry (geometric mean, Alexa Fluor 647 anti-human IgG Fc secondary) on CLDN18.2-expressing 293T cells
# [3] = target: His-tagged human Claudin-18.2 (human); test: SPR, Biacore 8K, antibody captured by anti-human IgG (Fc), His-tagged human Claudin-18.2 as analyte
# [4] = target: recombinant huCLDN18.2-Fc (human); test: KinExA 4000, equilibrium in solution, antibody constant, huCLDN18.2-Fc titrated
binder,measurement,setting,value
B1,"ADCC on KATOIII CLDN18.2 cells, LDH: EC50 (run A)",[1],0.12 nM
same,"ADCC on KATOIII CLDN18.2 cells, LDH: EC50 (run B)",[1],0.22 nM
same,"ADCC on KATOIII CLDN18.2 cells, LDH: EC50 (run C)",[1],0.27 nM
same,"ADCC on KATOIII CLDN18.2 cells, LDH: max (% cytotoxity) (run A)",[1],27.9%
same,"ADCC on KATOIII CLDN18.2 cells, LDH: max (% cytotoxity) (run B)",[1],24.5%
same,"ADCC on KATOIII CLDN18.2 cells, LDH: max (% cytotoxity) (run C)",[1],24.5%
same,"ADCC on NCI-N87 CLDN18.2 cells, LDH: EC50 (run A)",[1],0.057 nM
same,"ADCC on NCI-N87 CLDN18.2 cells, LDH: EC50 (run B)",[1],0.082 nM
same,"ADCC on NCI-N87 CLDN18.2 cells, LDH: EC50 (run C)",[1],0.1 nM
same,"ADCC on NCI-N87 CLDN18.2 cells, LDH: max (% cytotoxity) (run A)",[1],26.1%
same,"ADCC on NCI-N87 CLDN18.2 cells, LDH: max (% cytotoxity) (run B)",[1],22.1%
same,"ADCC on NCI-N87 CLDN18.2 cells, LDH: max (% cytotoxity) (run C)",[1],21.1%
same,"CDC on CT26 CLDN18.2 cells, LDH: EC50 (run A)",[1],11.5 nM
same,"CDC on CT26 CLDN18.2 cells, LDH: EC50 (run B)",[1],10.7 nM
same,"CDC on CT26 CLDN18.2 cells, LDH: EC50 (run C)",[1],11.9 nM
same,"CDC on CT26 CLDN18.2 cells, LDH: max (% cytotoxity) (run A)",[1],72.5%
same,"CDC on CT26 CLDN18.2 cells, LDH: max (% cytotoxity) (run B)",[1],54.7%
same,"CDC on CT26 CLDN18.2 cells, LDH: max (% cytotoxity) (run C)",[1],51.6%
same,"CDC on KATOIII CLDN18.2 cells, LDH: EC50 (run A)",[1],38.1 nM
same,"CDC on KATOIII CLDN18.2 cells, LDH: EC50 (run B)",[1],22.7 nM
same,"CDC on KATOIII CLDN18.2 cells, LDH: EC50 (run C)",[1],27.5 nM
same,"CDC on KATOIII CLDN18.2 cells, LDH: max (% cytotoxity) (run A)",[1],29.7%
same,"CDC on KATOIII CLDN18.2 cells, LDH: max (% cytotoxity) (run B)",[1],46%
same,"CDC on KATOIII CLDN18.2 cells, LDH: max (% cytotoxity) (run C)",[1],34.9%
same,EC50 (read off the curve),[2],0.8 µg/mL
B2,Kd,[3],2.05 nM
same,koff,[3],0.0014 s⁻¹
same,kon,[3],686000 M⁻¹ s⁻¹
same,Kd,[4],1.7 nM
B3,Kd,[3],1.11 nM
same,koff,[3],0.000591 s⁻¹
same,kon,[3],532000 M⁻¹ s⁻¹
same,Kd,[4],3.8 nM
B4,Kd,[3],1.02 nM
same,koff,[3],0.000722 s⁻¹
same,kon,[3],707000 M⁻¹ s⁻¹
same,Kd,[4],6.4 nM
